Measurements: publication PMC9800720, “Size-advantage of monovalent nanobodies against the macrophage mannose receptor for deep tumor penetration and tumor-associated macrophage targeting” (Theranostics, 2023)

Target: T1, recombinant murine MMR protein (Macrophage Mannose Receptor, CD206) (Mus musculus, UniProt Q61830)
T1 construct: Macrophage Mannose Receptor (MMR, CD206), mouse, recombinant protein of R&D systems, catalogue 2535-MM; also called recombinant mouse MMR protein; MMR Ag; source: bought: R&D systems (2535-MM)
Test: SPR; Biacore T200; recombinant murine MMR immobilised on a CM5 chip by amine coupling at pH 5; Nbs injected in three-fold dilutions from 100 to 0.4 nM; 25 °C, HEPES buffered saline, 30 µL/min; association 180 s, dissociation 600 s; table gives two sets of rate constants (ka1/kd1, ka2/kd2); affinity of the bivalent Nb called apparent
Conditions: both partners purified

T1 sequence (Q61830 20-1388): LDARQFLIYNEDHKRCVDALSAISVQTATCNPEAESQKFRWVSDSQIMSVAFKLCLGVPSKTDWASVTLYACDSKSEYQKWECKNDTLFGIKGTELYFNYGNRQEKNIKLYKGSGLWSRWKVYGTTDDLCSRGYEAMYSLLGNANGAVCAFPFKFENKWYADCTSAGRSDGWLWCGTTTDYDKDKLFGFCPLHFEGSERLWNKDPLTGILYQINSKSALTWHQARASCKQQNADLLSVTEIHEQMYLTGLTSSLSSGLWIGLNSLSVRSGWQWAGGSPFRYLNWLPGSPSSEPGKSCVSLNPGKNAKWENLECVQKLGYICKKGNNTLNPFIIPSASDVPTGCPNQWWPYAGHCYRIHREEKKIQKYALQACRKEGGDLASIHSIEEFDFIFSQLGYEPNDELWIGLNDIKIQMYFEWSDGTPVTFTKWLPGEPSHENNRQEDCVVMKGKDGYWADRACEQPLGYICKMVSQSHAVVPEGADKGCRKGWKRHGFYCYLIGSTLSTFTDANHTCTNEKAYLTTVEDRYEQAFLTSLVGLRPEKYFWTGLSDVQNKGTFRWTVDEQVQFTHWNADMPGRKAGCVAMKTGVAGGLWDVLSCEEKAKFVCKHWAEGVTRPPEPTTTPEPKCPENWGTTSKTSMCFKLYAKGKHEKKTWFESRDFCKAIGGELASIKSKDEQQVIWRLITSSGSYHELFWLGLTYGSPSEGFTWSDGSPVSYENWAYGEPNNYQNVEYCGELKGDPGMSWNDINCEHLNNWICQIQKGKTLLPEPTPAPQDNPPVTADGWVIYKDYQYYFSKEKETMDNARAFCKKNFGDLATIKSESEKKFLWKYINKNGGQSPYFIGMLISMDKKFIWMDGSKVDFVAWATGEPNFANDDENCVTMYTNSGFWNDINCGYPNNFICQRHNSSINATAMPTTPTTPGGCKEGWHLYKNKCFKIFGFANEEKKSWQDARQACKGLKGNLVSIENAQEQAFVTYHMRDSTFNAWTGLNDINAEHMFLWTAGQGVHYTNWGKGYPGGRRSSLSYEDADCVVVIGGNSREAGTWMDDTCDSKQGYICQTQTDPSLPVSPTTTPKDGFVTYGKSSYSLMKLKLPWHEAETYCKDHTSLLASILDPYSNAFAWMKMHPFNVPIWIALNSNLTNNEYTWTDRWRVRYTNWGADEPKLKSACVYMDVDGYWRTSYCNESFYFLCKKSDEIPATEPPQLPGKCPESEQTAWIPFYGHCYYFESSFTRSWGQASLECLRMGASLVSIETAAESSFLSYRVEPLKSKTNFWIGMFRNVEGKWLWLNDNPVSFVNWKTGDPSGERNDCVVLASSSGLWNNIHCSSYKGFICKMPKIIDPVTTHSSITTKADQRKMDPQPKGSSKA

B1: monovalent anti-Macrophage Mannose Receptor nanobody, (m)anti-MMR Nb (VHH)
VHH: QVQLQESGGGLVQPGGSLRLSCAASGNIFSINAIGWYRQAPGKQRELVATITLSGSTNYADSVKGRFSISRDNAKNTVYLQMNSLKPEDTAVYYCNANTYSDSDVYGYWGQGTQVTVSS
notes: anti-MMR nanobody MMRCl1; also called (m)anti-MMR Nbs; MMRCl1; source: E. coli WK6, periplasmic extract, purified (Ni-NTA, SEC); not shown: His6, C-terminal, kept
Kd: 25 nM
